Results from US20260242419A1, “A CYCLIC PEPTIDE FOR TRAPPING INTERLEUKIN-1 BETA” (Merck Sharp & Dohme LLC, priority 2023, published 2026).
Starred links: 1 amine or outer side, 2 acyl side, 3 side chain; linkers in the order of their positions; H or OH if unused. Non-standard residues stand in square brackets, D forms with d. SbOHPhe4CONH2 = (2S,3S)-2-amino-3-(4-carbamoylphenyl)-3-hydroxypropanoic acid, NC(=O)c1ccc([C@H](O[*:3])[C@H](N[*:1])C(=O)[*:2])cc1; TyrEtNAc = (2S)-3-[4-(2-acetamidoethoxy)phenyl]-2-amino-propanoic acid, CC(=O)NCCOc1ccc(C[C@H](N[*:1])C(=O)[*:2])cc1; alThrOEt = O-ethyl-L-allothreonine, CCO[C@@H](C)[C@H](N[*:1])C(=O)[*:2]; ThrOEt = O-ethyl-L-threonine, CCO[C@H](C)[C@H](N[*:1])C(=O)[*:2]; dPro(4R-(4-pyridylmethyl)) = O=C(O)[C@H]1C[C@@H](Cc2ccncc2)CN1; Trp(βS-Me,4-F) = C[C@@H](c1c[nH]c2cccc(F)c12)[C@H](N)C(=O)O; Bip(4'-CONH2) = NC(=O)c1ccc(-c2ccc(C[C@H](N)C(=O)O)cc2)cc1; dPro(3S-(4-F-Bn)) = O=C(O)[C@@H]1NCC[C@@H]1Cc1ccc(F)cc1; Ala(pyrimidin-5-yl) = N[C@@H](Cc1cncnc1)C(=O)O; Phe(4-CONH2) = NC(=O)c1ccc(C[C@H](N)C(=O)O)cc1; Phe(4-COOH) = N[C@@H](Cc1ccc(C(=O)O)cc1)C(=O)O; Pro(cis-4-F) = O=C(O)[C@@H]1C[C@H](F)CN1; Ala(4-THP) = N[C@@H](CC1CCOCC1)C(=O)O; d(αMeD) = C[C@@](N)(CC(=O)O)C(=O)O; 4Pal = N[C@@H](Cc1ccncc1)C(=O)O; d(αMeS) = C[C@@](N)(CO)C(=O)O; NMeDab = CN[C@@H](CCN)C(=O)O; Dab = NCC[C@H](N)C(=O)O; Aib = CC(C)(N)C(=O)O

B1: SEQ ID NO 377 (peptide)
peptide: cyclo([TyrEtNAc][4Pal][Phe(4-CONH2)]G[Pro(cis-4-F)][Trp(βS-Me,4-F)][Aib]SW[d(αMeD)][Ala(4-THP)]Q[Dab]G[dPro(4R-(4-pyridylmethyl))])
SMILES: CC(=O)NCCOc1ccc(C[C@@H]2NC(=O)[C@H]3C[C@@H](Cc4ccncc4)CN3C(=O)CNC(=O)[C@H](CCN)NC(=O)[C@H](CCC(N)=O)NC(=O)[C@H](CC3CCOCC3)NC(=O)[C@@](C)(CC(=O)O)NC(=O)[C@H](Cc3c[nH]c4ccccc34)NC(=O)[C@H](CO)NC(=O)C(C)(C)NC(=O)[C@H]([C@@H](C)c3c[nH]c4cccc(F)c34)NC(=O)[C@@H]3C[C@H](F)CN3C(=O)CNC(=O)[C@H](Cc3ccc(C(N)=O)cc3)NC(=O)[C@H](Cc3ccncc3)NC2=O)cc1
B2: SEQ ID NO 378 (peptide)
peptide: cyclo([TyrEtNAc][4Pal][Phe(4-CONH2)]G[Pro(cis-4-F)][Trp(βS-Me,4-F)][Aib]SW[d(αMeS)][Ala(4-THP)]Q[Dab]G[dPro(4R-(4-pyridylmethyl))])
SMILES: CC(=O)NCCOc1ccc(C[C@@H]2NC(=O)[C@H]3C[C@@H](Cc4ccncc4)CN3C(=O)CNC(=O)[C@H](CCN)NC(=O)[C@H](CCC(N)=O)NC(=O)[C@H](CC3CCOCC3)NC(=O)[C@@](C)(CO)NC(=O)[C@H](Cc3c[nH]c4ccccc34)NC(=O)[C@H](CO)NC(=O)C(C)(C)NC(=O)[C@H]([C@@H](C)c3c[nH]c4cccc(F)c34)NC(=O)[C@@H]3C[C@H](F)CN3C(=O)CNC(=O)[C@H](Cc3ccc(C(N)=O)cc3)NC(=O)[C@H](Cc3ccncc3)NC2=O)cc1
B3: SEQ ID NO 379 (peptide)
peptide: cyclo([Bip(4'-CONH2)][4Pal][Phe(4-COOH)]G[Pro(cis-4-F)][Trp(βS-Me,4-F)][Aib]SW[d(αMeD)][Ala(pyrimidin-5-yl)]Q[Dab]G[dPro(3S-(4-F-Bn))])
SMILES: C[C@@H](c1c[nH]c2cccc(F)c12)[C@@H]1NC(=O)[C@@H]2C[C@H](F)CN2C(=O)CNC(=O)[C@H](Cc2ccc(C(=O)O)cc2)NC(=O)[C@H](Cc2ccncc2)NC(=O)[C@H](Cc2ccc(-c3ccc(C(N)=O)cc3)cc2)NC(=O)[C@H]2[C@@H](Cc3ccc(F)cc3)CCN2C(=O)CNC(=O)[C@H](CCN)NC(=O)[C@H](CCC(N)=O)NC(=O)[C@H](Cc2cncnc2)NC(=O)[C@@](C)(CC(=O)O)NC(=O)[C@H](Cc2c[nH]c3ccccc23)NC(=O)[C@H](CO)NC(=O)C(C)(C)NC1=O
B4: SEQ ID NO 383 (peptide)
peptide: cyclo([TyrEtNAc][4Pal][SbOHPhe4CONH2]G[Pro(cis-4-F)][Trp(βS-Me,4-F)][Aib]SW[Aib][Ala(pyrimidin-5-yl)]Q[NMeDab]G[dPro(4R-(4-pyridylmethyl))])
SMILES: CC(=O)NCCOc1ccc(C[C@@H]2NC(=O)[C@H]3C[C@@H](Cc4ccncc4)CN3C(=O)CNC(=O)[C@H](CCN)N(C)C(=O)[C@H](CCC(N)=O)NC(=O)[C@H](Cc3cncnc3)NC(=O)C(C)(C)NC(=O)[C@H](Cc3c[nH]c4ccccc34)NC(=O)[C@H](CO)NC(=O)C(C)(C)NC(=O)[C@H]([C@@H](C)c3c[nH]c4cccc(F)c34)NC(=O)[C@@H]3C[C@H](F)CN3C(=O)CNC(=O)[C@H]([C@@H](O)c3ccc(C(N)=O)cc3)NC(=O)[C@H](Cc3ccncc3)NC2=O)cc1
B5: SEQ ID NO 380 (peptide)
peptide: cyclo([Bip(4'-CONH2)][4Pal][Phe(4-CONH2)]G[Pro(cis-4-F)][Trp(βS-Me,4-F)][Aib]SW[d(αMeD)][Ala(pyrimidin-5-yl)]Q[Dab]G[dPro(3S-(4-F-Bn))])
SMILES: C[C@@H](c1c[nH]c2cccc(F)c12)[C@@H]1NC(=O)[C@@H]2C[C@H](F)CN2C(=O)CNC(=O)[C@H](Cc2ccc(C(N)=O)cc2)NC(=O)[C@H](Cc2ccncc2)NC(=O)[C@H](Cc2ccc(-c3ccc(C(N)=O)cc3)cc2)NC(=O)[C@H]2[C@@H](Cc3ccc(F)cc3)CCN2C(=O)CNC(=O)[C@H](CCN)NC(=O)[C@H](CCC(N)=O)NC(=O)[C@H](Cc2cncnc2)NC(=O)[C@@](C)(CC(=O)O)NC(=O)[C@H](Cc2c[nH]c3ccccc23)NC(=O)[C@H](CO)NC(=O)C(C)(C)NC1=O
B6: SEQ ID NO 382 (peptide)
peptide: cyclo([TyrEtNAc][4Pal][Phe(4-CONH2)]G[Pro(cis-4-F)][Trp(βS-Me,4-F)][Aib]SW[Aib][ThrOEt]Q[NMeDab]G[dPro(4R-(4-pyridylmethyl))])
SMILES: CCO[C@H](C)[C@@H]1NC(=O)C(C)(C)NC(=O)[C@H](Cc2c[nH]c3ccccc23)NC(=O)[C@H](CO)NC(=O)C(C)(C)NC(=O)[C@H]([C@@H](C)c2c[nH]c3cccc(F)c23)NC(=O)[C@@H]2C[C@H](F)CN2C(=O)CNC(=O)[C@H](Cc2ccc(C(N)=O)cc2)NC(=O)[C@H](Cc2ccncc2)NC(=O)[C@H](Cc2ccc(OCCNC(C)=O)cc2)NC(=O)[C@H]2C[C@@H](Cc3ccncc3)CN2C(=O)CNC(=O)[C@H](CCN)N(C)C(=O)[C@H](CCC(N)=O)NC1=O
B7: SEQ ID NO 381 (peptide)
peptide: cyclo([TyrEtNAc][4Pal][Phe(4-CONH2)]G[Pro(cis-4-F)][Trp(βS-Me,4-F)][Aib]SW[Aib][alThrOEt]Q[NMeDab]G[dPro(4R-(4-pyridylmethyl))])
SMILES: CCO[C@@H](C)[C@@H]1NC(=O)C(C)(C)NC(=O)[C@H](Cc2c[nH]c3ccccc23)NC(=O)[C@H](CO)NC(=O)C(C)(C)NC(=O)[C@H]([C@@H](C)c2c[nH]c3cccc(F)c23)NC(=O)[C@@H]2C[C@H](F)CN2C(=O)CNC(=O)[C@H](Cc2ccc(C(N)=O)cc2)NC(=O)[C@H](Cc2ccncc2)NC(=O)[C@H](Cc2ccc(OCCNC(C)=O)cc2)NC(=O)[C@H]2C[C@@H](Cc3ccncc3)CN2C(=O)CNC(=O)[C@H](CCN)N(C)C(=O)[C@H](CCC(N)=O)NC1=O

Molecular target: Recombinant human IL-1β (BioLegend 579404) (human, UniProt P01584 117-269)
Assay: cell-based or functional assay

Row | Binder | MRC5 IC50 [nM]
1 | B1 | 0.04
2 | B2 | 0.043
3 | B3 | 0.016
4 | cyclo([TyrEtNAc][4Pal][Phe(4-CONH2)]G[Pro(cis-4-F)][Trp(βS-Me,4-F)][Aib]SW[Aib][Ala(pyrimidin-5-yl)]Q[Dab]G[dPro(4R-(4-pyridylmethyl))]) [SEQ ID NO 384] | 0.086
5 | B4 | 0.042
6 | B5 | 0.018
7 | B6 | 0.048
8 | B7 | 0.041
